Results published in the RNAGym collection of RNA variant scans (doi:10.1073/pnas.2313332121).
This sample holds only a part of the variants without activity.

B1: TPR 5TU (parent)
chain: GGAUCUUCUCGAUCUAACAAAAAAGACAAAUCUGCCACAAAGCUUGAGAGCAUCUUCGGAUGCAGAGGCGGCAGCCUUCGGUGGCGCGAUAGCGCCAACGUUCUCAACUAUGACACGCAAAACGCGUGCUCCGUUGAAUGGAGUUUAUCAUG

Variants of: B1
Test: polymerase ribozyme fitness, log enrichment relative to wild type (log ratio); higher = more active; in vitro selection for triplet polymerase activity
Summary of the method: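 Input and output libraries were sequenced on Illumina after a single in vitro selection round, run in triplicate on PCR-built, transcribed mutant libraries of each subunit of a heterodimeric triplet polymerase ribozyme. Selection annealed libraries to a biotinylated primer, the partner subunit and triplets, incubated them frozen at −7 °C, then gel-excised extended constructs for streptavidin-bead capture and RT-PCR. Genotypes with ≥10 input reads and ≥1 read per output were kept. Fitness is the logarithm, taken in base 2, of genotype enrichment divided by wild-type enrichment, using inverse-variance-weighted replicate averages.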

Variant	polymerase ribozyme fitness (log ratio)
A29U G59C G88U C95G	≤ -4.2
A29U G59A G83C C125U	≤ -4.2
A29U G94U C149G	≤ -4.2
A29U A30U A37U A47G G50C A97U G100U A106C	≤ -4.2
A30U C35U G68U A120U	≤ -4.2
A29C U44A A52U G58A C118A	≤ -4.2
A29G A47C G70A C85G A89U A138C A142U	≤ -4.2
A30G G141C	-3.51
A29G U45C A52C U53G U134C G136U	≤ -4.2
A29U G68A G83A C103G	≤ -4.2
A29C U53A	≤ -4.2
A29U U111C C114G G140U	≤ -4.2
A30U A52G U53A U146G	≤ -4.2
A30G C95U	-3.14
A30C A47G G70U U102G G126U G152U	≤ -4.2
A30C G81C A138G U146A C149U	≤ -4.2
A29U C35A A60G C85A G126A	≤ -4.2
A29C G59U G92C C96A A107G C125U U127G	≤ -4.2
A30U A73U G74U C76G U90G U139C	≤ -4.2
A30U C32G U55G G74A A89G C93A G133U A142C	≤ -4.2
A29G A41C	-3.63
A30U G50C C96U U104C G136U	≤ -4.2
A30G A150U	-2.97
A30C C76A G83C	≤ -4.2

Variant	polymerase ribozyme fitness (log ratio)
A30G A121G	-3.36
A30G A121U	-3.39
A30G U33A U55A A91C C132U A142U	≤ -4.2
A30C C38A C54U A60G G84U G141A G143A	≤ -4.2
A29U A49G C54G G59U A91U C96A G117U A142U	≤ -4.2
A29U C32A A41U G71C C85U C87U A98C	≤ -4.2
A29U U31G C36U C69G G84A	≤ -4.2
A30C C79A G88A A107G C116G A137G U144C	≤ -4.2
A30U G50A C57A C75U C85A G140U G143A	≤ -4.2
A30U C95U	-3.31
A30U C95G	-3.94
A30U A52C U90C C93U C95U C96U A106G	≤ -4.2
A29U U45G G86C U148A	≤ -4.2
A29U A52C	≤ -4.2
A30U C38G G50C C87G G117A	≤ -4.2
A30G C93A	-3.95
A30C A52C C85U C99A A115U C131U G141C	≤ -4.2
A29U G133C	≤ -4.2
A30G C54G G68A C95G A121C	≤ -4.2
A29G G84U G117A	≤ -4.2
A29U U33C A52C G86A	≤ -4.2
A30U A66U C85U A106C	≤ -4.2
A30G G48A C54U C85U	≤ -4.2
A29U C36U G62A U109G	≤ -4.2

Variant	polymerase ribozyme fitness (log ratio)
A29G C43U U45A A52C C75G A91U A115G U151G	≤ -4.2
A29U A137G	≤ -4.2
A30C G92C G126A	≤ -4.2
A29U U61A A91C C96A G128C	≤ -4.2
A29U A52U U53A G80A C87A G128U U146C	≤ -4.2
A30U C54A A97U C116U G117U	≤ -4.2
A29C G94A A110U G124A A147U	≤ -4.2
A30C C54U C69A G70A A137C	≤ -4.2
A29C G50C C114U	≤ -4.2
A29C U33G G34U G50C G84C G100C C108A A113U G141U	≤ -4.2
A29C G58C	-3.97
A29C G58U	-4.16
A29G C51U G62A G84A U139G	≤ -4.2
A29C C63U G65U U144G	≤ -4.2
A29C U33C U44A G80U C85U C93U G136U	≤ -4.2
A29G A52G	-4.08
A29C U53A A73C G84C C103G A107U U134G	≤ -4.2
A30G G92U A98U	-3.79
A30U C54U C85A G128C G140U G141A	≤ -4.2
A30G C95A U104A C118U C131A A138U G141A	≤ -4.2
A29G C51U C96G	≤ -4.2
A29U A39G C57G A66C C85G A91U	≤ -4.2
A29U A41U A47C C114G C132U	≤ -4.2
A30U A52U C93A	≤ -4.2

Variant	polymerase ribozyme fitness (log ratio)
A30U C87G C116A G141A	≤ -4.2
A29G C38U U53G C85G A98U C108A G128U	-3.97
A29U C32U A122G	≤ -4.2
A30G C35U U56G A66G U82G C99U A119U G126A A142C	≤ -4.2
A29G U78G G84C	≤ -4.2
A30G A39C U55G U82C G136U	≤ -4.2
A30G C108U U109A	≤ -4.2
A29G U111A	≤ -4.2
A30U C43U G70U C87G	≤ -4.2
A29G A60G G92C C116G A121G	≤ -4.2
A29U G46A U61A U78G C87G A89C G124U U148G	≤ -4.2
A30G A40G C54A C85U G117C	≤ -4.2
A29U C36U	≤ -4.2
A30G C87G U101C A122G	≤ -4.2
A29G C87A A110C G141U	≤ -4.2
A30U A49G A52G G58C U78A A110U C123U A142C	≤ -4.2
A30U G62U U90G C95A A107C C118A A142G	≤ -4.2
A30U A49C A60U U77C U148A	≤ -4.2
A30U C57A A73G G81C G92U G141A U148A	≤ -4.2
A29C C54U C85U	≤ -4.2
A30C U44G C108G U145G	≤ -4.2
A30U A52G U56G G80C G84U A98C A110U	≤ -4.2
A29U U109G C149G	≤ -4.2
A30U C43G A47G U53G C72A G140A	≤ -4.2

Variant	polymerase ribozyme fitness (log ratio)
A30C A41C G67C G83U G88U G141A	≤ -4.2
A29G G59U A60U C114U	≤ -4.2
A29U G48A C87G A121G G141C G152U	≤ -4.2
A29U A97U A115U G124C U134C U148A	≤ -4.2
A30C C72G G86U A106G U144C C149G	≤ -4.2
A30U A52U U78A	≤ -4.2
A30G C51U G68C A121G U127C	≤ -4.2
A30G A47U A64G G94A	-3.57
A30C G50C A66G G128U	≤ -4.2
A30G C57A	-2.9
A30C G67C G68A G88A C93A U135C G141C	≤ -4.2
A29G C35G G84C G100A	≤ -4.2
A29C C95A G117U G126U G141C G143C	≤ -4.2
A30G U45G G46C C76U C87U U135A	≤ -4.2
A30G G50U C75A U78C G94C	≤ -4.2
A29U G50A G58C A60C G88A C116G U139A G141C G143C	-3.79
A30C A41G C76U G83A A89U G124A C131U C132G G143A U144A C149A	≤ -4.2
A30U G70A G143C	≤ -4.2
A29U G81U G92C C116G G140A U148C	≤ -4.2
A30G A40G U45G C79G A89C G94U U145A	≤ -4.2
A30G G48U G86U C149U	≤ -4.2
A30U A66G G68A C76U G141U A142U	≤ -4.2
A29G U90G A122U A142U C149G	≤ -4.2
A29U A60G C76A	≤ -4.2

Variant	polymerase ribozyme fitness (log ratio)
A29G A89U C96U A115C A121C G143U	≤ -4.2
A30G U45A A106C U135G	-3.85
A29G C35U U145C	-3.89
A29U G65A C87A A91C U109G	≤ -4.2
A30U A91U U104G	≤ -4.2
A30C A37C A49C A52C C57G G83A A115U G143C	≤ -4.2
A30G G80A	-3.66
A30G G42A U55G G65A C76G C87G A106U G143A A147C	≤ -4.2
A29G C96A	-3.46
A30U A52C G67A G68A C87U A91G C95G U127C G143U U148G	≤ -4.2
A30G C54G A121U U139A U145C	≤ -4.2
A29U A41U C75U C123U G143U U145G	≤ -4.2
A29C C51G C57G G92C A107C A110C G124A U145A U151G	≤ -4.2
A30G C75A G94U A137C G143U A150U	≤ -4.2
A29G G58C A73U G92C A98G C125A	≤ -4.2
A29C G58A G83A C118U	≤ -4.2
A30U G58C C76A G94C U104G G136A	≤ -4.2
A29U G94U U109A	≤ -4.2
A30U G58C U90G C95A	≤ -4.2
A30U C87G U101G U146A C149G	≤ -4.2
A30C C79G C85U A106U	≤ -4.2
A30G G46U G68U A147C	≤ -4.2
A29G C36A A47C G50C C76A C85U C118A A121U U135G	≤ -4.2
A29U A107C	≤ -4.2

Variant	polymerase ribozyme fitness (log ratio)
A30U A66G A115U G143A	≤ -4.2
A29U U134A	≤ -4.2
A30U C79U G83C	≤ -4.2
A30C A142C U144C	≤ -4.2
A30U G50C U56A A66C G141A	≤ -4.2
A30C A64U G65A G70A G84U A91C C103U G136C C149G	≤ -4.2
A29U G70U G71A C87U U90A A106U	≤ -4.2
A29C U44G U55A G68A G71U G80A C93A A98U A138C	≤ -4.2
A30C G59A	≤ -4.2
A30C U31C C32A G46C G50C G58U G88C U104C A122G	≤ -4.2
A29G A47C U55G	≤ -4.2
A29G U31A C43G	≤ -4.2
A29U U53A U56A A64U U77C A98G C103G U148C	≤ -4.2
A30U C38U	-3.76
A29G A52C C85A U90C C95G A97G C118A A138C G143U	≤ -4.2
A30U A41C G70C C93G	≤ -4.2
A30G A60G C93A C105G C132A A142U	≤ -4.2
A30G G86C A147C	≤ -4.2
A29C G92A G143C U146C	≤ -4.2
A29U C51G G58C G71A A91G C95A C103G U151A G152A	≤ -4.2
A30C U33A G68U A73U C95A C114A A121G	≤ -4.2
A29C G59A G94U U102A A106G G141A	≤ -4.2
A29G C35G U56G G68A G81A C99A C114A G143C	≤ -4.2
